Experimental data published in article PMC10412621.

Target: full-length human leucine-rich repeat kinase 1 (LRRK1, residues 1-2015) (human) (UniProt Q38SD2)
Assay: mass photometry; undiluted 'monomer' and 'dimer' gel filtration fractions added to detergent-free buffer (20 mM Tris, 150 mM NaCl, 5 mM MgCl2 pH 8.3); OneMP mass photometer; dimer fraction held monomers and dimers at approximately a 1:2 ratio, alongside higher-order species

stoichiometry N: 2
Substance: full-length human leucine-rich repeat kinase 1 (LRRK1, residues 1-2015) (from UniProt Q38SD2 1-2015) (enzyme)
